Experiment: soluble on expression in E. coli; label from the status in PepcDB or PDB records

Sequence | soluble on expression in E. coli
MRTSFFAAAALLAVSAFAQAHEYNAGQLHIEHPWALALPPTSPNGAAYFVVQNHGKENDTLLGADTPRAASAEVHEHVHKNGMMSMQKVDSVDVAPGKDLRFAPGGYHLMLMGLKQPLVAGERFPLTLHFRKAGDVPVEIVVESKAPAEQGGHEQHGH | soluble
MRTSSGQILTVTKEISLQASPTEIWSELIHINEVDSIEKKSIISSTLGFPRHIRTHLDTARVGGKRTAYYEKGLTFEETITAYEPERLMILDIKTDPDKISAQVMDEHILIGGKHLDILEDTYELQALSNGCSKLKLTSKFYINTPFNWYAGLWGNYLMSDILKNELELIKNRAEAKLEHHHHHH | soluble
MRTVTGAILAMNLEVKDFVHRDVEEADRRLREIGARKILLQLPDGLKPYAFDYFTYLSQRYDVILSSSPVYGACDIGPSYLYDRVDAIVQVGHSIMRNVKYPRPVIFIEHYRTVDVEDINTEALKNYRRIGLIYSIQYRPVADRVKRILESKGFEVIIGRSDRRMTYDGQVLGCNFSSVHSVEAEVEAFVIVSTGSFHALGSQISTERPVFLLDLNEMSLRSMEKEADTFIRKRYAQIYRAMDAKRICFLVDTRIGQRREKLARMLMDRARDLGKEAVLAYTDNISDQDIQNMGCDLAVYTGCPRVPIDDQDRFTVPVLTPAEFSMAFFKSSKRYVLDEIVSVDEFTDQLEHHHHHH | not soluble
MRTVVPFDPRDPKSRLAEFFADAEERRGFAYAMLADVLGAVRDAGGDPVVVATAPVSRPVDAPVTVDDRALSTAVAAAIADGPLPTAVVMADLALATPDAIRRVFAASGDVVLAPGSGGGTNVVLARTADVPVSYHGVSFRDHVTAAERAGLTVTTVDSFRLAADVDDASDLVDVFVHNTRRTREWLIAGGWRLAVDDGTPTVVREPND | not soluble
MRVAIVGTGIAGNAAAWALSQRYPVTVYERELRAGGHSHTVTVDYDGTTIPVDIGFIVYNQLNYPDLTAMFAHLGVETVESCMSFSVSADAGRFEWKGGGSNWLETADGLFAQRRNLLSPSYLQMLRHILVFNEKSVEDFKTGALAGLTLGDYFESRKFAPRLLTDYLAPMGAAIWSAPASQILDFPAENFVAFFNNHRLLHYERPIWRTVKGGSARYVEKLTSAFKDDMRLGAAVTSIERSPKGVIVRDSLGGLGVFDHVVIGAHSDQALAMLSDASDIERDILGSIGYAPNMVYLHRDPRLMPKRKRAWASWNFLRWQREGSPVNDVAVTYWMNRLQGIDADKPLFVSLNPPFEPAPELTFGRYACDHPQYTAKAFAAQRRVGELQGHRNTWFCGAWTGYGFHEDGLRSGLAVAEHLGAPVPWRGPPSEFREAAELEHHHHHH | soluble
MRVCLLASGSKGNSLFIETGESRILIDAGLSARELVRRLSLIGVDAAQLDALFISHEHTDHVRGAGVLARKYRIPVHVSYPTHREISGQIHGVYVTEFESGYSFTFRDLLVDPFRITHDACDPVGFTVESREGKVGIATDLGTATRLVADKLAGCRALVVESNHDEGMLMDGPYPWHLKQRIKSRHGHLSNNDTAALLAEVINPGLEGLFLAHLSEVNNDPVMARQVTASFLAGQNICSPRLVVGDQYRPSELLNILEHHHHHH | not soluble
MRVDLNSDLGESFGRYKLGLDEEVMKYITSANVACGWHAGDPLVMRKTVRLAKENDVQVGAHPGYPDLMGFGRRYMKLTPEEARNYILYQVGALYAFAKAEGLELQHVKPHGALYNAMVKEEDLARAVIEGILDFDKDLILVTLSNSRVADIAEEMGLKVAHEVFADRAYNPDGTLVPRGRPGAVIEDKEEIAERVISMVKDGGIRAINGEWVDLKVDTICVHGDNPKAVEITSYIRKVLEEEGVKIVPMKEFIR | soluble
MRVENSNGQSQPAATSKTVKDNAEIYYDNDDSDRFYFHVWGGEDIHVGLYKEPVDQDEIREASLRTDEWLASELAMTGVLQRQAKGLDLGAGYGGAARFLVRKFGVSIDCLNIAPVQNKRNEEYNSQAGLADNITVKYGSFLEIPCEDNSYDFIWSQDAFLHSPDKLKVFQECARVLKPGGVMAITDPMKEDGIDKSSIQPILDRIKLHDMGSLGLYRSLAKECGLVTLRTFSRPDSLVHHYSKVKAELIKRSSEIASFCSPEFQANMKRGLEHWIEGGRAGKLTWGGMLFRKSDKI | soluble
MRVIVTEYQPAWVEQFEEEAQALKQILKENCLKVEHIGSTSVPNLAAKPIIDFLVIVEEIEKVDLLQWEFERIGYEYMGEFGLSGRRYLRKGPIKRTHHVHIYQFDNTQEILRHLAFRNYLRENPAIATTYGTLKKQLAQAHPDSIDKYMDGKDAFIKKIEKEALKKYWEK | not soluble

From the DeepSol protein solubility set
